As usually defined, the IC50 is the concentration that inhibits the measured activity by half. As a reminder, the Kd is the concentration at which binding is half-saturated. Low readings indicate higher affinity, high ones lower affinity.

Test [1] has as its target T1, Mdm2 joined to HaloTag (UniProt Q00987 1-491, HaloTag covalently labelled with a cell permeable fluorogenic substrate).
T1 construct: Mdm2 of the p53:Mdm2 NanoBRET System (Promega); Construct of a bought kit (Promega); source: HEK293, transiently transfected, in live cells
The test is described as follows: FRET or BRET; nanoBRET in live HEK293 cells transfected with p53-nanoLUC and Mdm2-HaloTag; stapled peptide titrated (10 points), 0% FCS, signal after 4 hours. The settings on record: one partner purified. Background: In BRET a luciferase serves as donor, and the signal depends on an acceptor being close.

The target in test [2] is T2, Mdm2 (1-125) (UniProt Q00987 1-125). The test is described as follows: cell-based or functional assay.
Test [3] concerns the target T2, Mdm2 (1-125). In words: fluorescence polarisation; competitive fluorescence anisotropy (FA) assay on Mdm2 (1-125); Kd determined from the competition; details in the supplementary information. The settings on record: both partners purified.
In test [4] the target is T1, Mdm2 joined to HaloTag. In words: FRET or BRET; nanoBRET in live HEK293 cells transfected with p53-nanoLUC and Mdm2-HaloTag; stapled peptide titrated (10 points), 10% FCS, signal after 4 hours. The settings on record: one partner purified.

Positions of bridges follow the written chain, without caps; N, C: chain ends. Non-standard residues stand in square brackets, D forms with d. R8 = C=CCCCCCC[C@@](C)(N)C(=O)O; S5 = C=CCCC[C@](C)(N)C(=O)O; Ahx = NCCCCCC(=O)O

T2 sequence (Q00987 1-125): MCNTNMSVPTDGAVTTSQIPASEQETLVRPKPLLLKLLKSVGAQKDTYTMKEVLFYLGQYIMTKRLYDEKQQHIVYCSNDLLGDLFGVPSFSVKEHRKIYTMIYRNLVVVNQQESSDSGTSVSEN
T1 sequence (Q00987 whole entry): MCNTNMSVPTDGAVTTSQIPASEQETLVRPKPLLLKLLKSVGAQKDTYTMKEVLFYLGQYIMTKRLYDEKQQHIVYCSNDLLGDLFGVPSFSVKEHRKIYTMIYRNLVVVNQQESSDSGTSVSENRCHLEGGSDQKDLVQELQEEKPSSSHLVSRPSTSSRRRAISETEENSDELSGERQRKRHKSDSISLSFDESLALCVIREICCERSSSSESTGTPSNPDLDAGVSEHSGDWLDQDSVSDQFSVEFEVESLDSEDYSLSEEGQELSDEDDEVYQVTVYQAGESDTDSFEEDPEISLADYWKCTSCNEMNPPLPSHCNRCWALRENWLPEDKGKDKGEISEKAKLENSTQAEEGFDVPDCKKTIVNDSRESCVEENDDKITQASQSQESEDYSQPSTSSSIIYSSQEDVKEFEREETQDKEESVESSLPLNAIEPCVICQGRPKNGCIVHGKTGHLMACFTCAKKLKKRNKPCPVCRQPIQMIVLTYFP

On to Ac-KK[Ahx]TSF[R8]EYWALL[S5]ENF-NH2 (staple 7-14) [VIP-82], for which the half-inhibitory concentration (IC50) in test [1] was determined as 3.9 ± 0.2 µM; in test [4], 17.5 ± 1.3 µM. Further, the “EC50 of p53 activation, T22 p53 reporter cells (β-galactosidase), 0% FCS; blocks Mdm2:p53” value in test [2] came to 0.8 µM. Moreover, the “EC50 of p53 activation, T22 p53 reporter cells (β-galactosidase), 10% FCS; blocks Mdm2:p53” value in test [2] turned out to be 10 µM. The dissociation constant (Kd) in test [3] came to 24.4 ± 2.3 µM.

The values are drawn from publication PMC5431883, “Enhancing Specific Disruption of Intracellular Protein Complexes by Hydrocarbon Stapled Peptides Using Lipid Based Delivery” (Scientific Reports, 2017).
